Source: paper PMC2809015

Experiments:
[1] = molecular target: HscB, co-chaperone of HscA (E. coli) (UniProt P0A6L9)
[2] = molecular target: IscU, FeS cluster assembly scaffold protein (E. coli) (UniProt P0ACD4)
[3] = molecular target: IscA, FeS cluster assembly scaffold protein (E. coli) (UniProt P0AAC8)
IscU (Escherichia coli) = IscU (Escherichia coli) (UniProt P0ACD4); test: surface plasmon resonance; details: cited from earlier work
Sequence of IscU (Escherichia coli) (P0ACD4 whole entry): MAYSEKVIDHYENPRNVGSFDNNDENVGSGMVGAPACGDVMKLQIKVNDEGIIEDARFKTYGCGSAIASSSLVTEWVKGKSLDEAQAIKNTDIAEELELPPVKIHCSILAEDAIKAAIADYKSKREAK

Sequence of IscU, FeS cluster assembly scaffold protein (E. coli) (P0ACD4 whole entry): as above
Sequence of HscB, co-chaperone of HscA (E. coli) (P0A6L9 whole entry): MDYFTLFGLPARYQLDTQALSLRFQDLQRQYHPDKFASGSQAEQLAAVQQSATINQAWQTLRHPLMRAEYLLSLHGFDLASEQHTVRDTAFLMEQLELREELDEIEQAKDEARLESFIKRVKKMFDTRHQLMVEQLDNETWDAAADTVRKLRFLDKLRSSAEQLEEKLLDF
Sequence of HscA (P0A6Z1 whole entry): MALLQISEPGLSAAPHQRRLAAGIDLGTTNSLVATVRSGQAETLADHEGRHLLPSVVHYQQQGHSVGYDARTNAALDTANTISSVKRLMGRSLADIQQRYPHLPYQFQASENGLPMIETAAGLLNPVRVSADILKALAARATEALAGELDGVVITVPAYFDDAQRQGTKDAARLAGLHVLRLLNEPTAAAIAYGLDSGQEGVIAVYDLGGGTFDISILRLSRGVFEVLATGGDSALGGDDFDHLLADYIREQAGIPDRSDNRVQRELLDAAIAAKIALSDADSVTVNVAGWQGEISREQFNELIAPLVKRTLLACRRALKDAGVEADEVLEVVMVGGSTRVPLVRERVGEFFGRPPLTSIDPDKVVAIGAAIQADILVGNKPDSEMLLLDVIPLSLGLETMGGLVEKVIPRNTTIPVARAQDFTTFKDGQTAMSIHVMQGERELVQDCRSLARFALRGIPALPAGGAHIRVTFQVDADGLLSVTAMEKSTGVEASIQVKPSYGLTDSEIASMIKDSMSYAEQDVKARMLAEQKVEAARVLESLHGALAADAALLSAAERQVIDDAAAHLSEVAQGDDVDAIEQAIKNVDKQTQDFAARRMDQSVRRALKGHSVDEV
Sequence of Biotin synthase (BioB), cluster state not stated for the experiment (P12996 whole entry): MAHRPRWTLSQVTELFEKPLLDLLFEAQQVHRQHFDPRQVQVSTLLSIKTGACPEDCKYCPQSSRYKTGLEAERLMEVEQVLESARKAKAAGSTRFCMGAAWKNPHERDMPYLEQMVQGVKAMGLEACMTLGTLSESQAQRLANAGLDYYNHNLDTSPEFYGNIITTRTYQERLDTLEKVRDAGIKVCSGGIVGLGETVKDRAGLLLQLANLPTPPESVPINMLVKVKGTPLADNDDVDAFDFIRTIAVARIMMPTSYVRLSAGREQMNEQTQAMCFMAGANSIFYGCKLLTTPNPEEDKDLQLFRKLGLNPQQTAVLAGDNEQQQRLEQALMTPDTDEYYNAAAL
Sequence of IscA, FeS cluster assembly scaffold protein (E. coli) (P0AAC8 whole entry): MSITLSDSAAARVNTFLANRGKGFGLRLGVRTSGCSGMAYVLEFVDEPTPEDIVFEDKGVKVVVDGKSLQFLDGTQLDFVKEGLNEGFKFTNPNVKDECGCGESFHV

Kd [1]	Kd [2]	Kd [3]	Substance	Kd (IscU (Escherichia coli))
> 10 µM	> 10 µM	> 10 µM	Biotin synthase (BioB), cluster state not stated for the experiment (from UniProt P12996 1-346) (enzyme)	
			HscA (from UniProt P0A6Z1)	9.3 µM
